Values of other authors in publication PMC3345106.

Biological target: Cys34 (UniProt position 58, QYLQQCPFEDH)
Settings: HSA thiol in earlier reports, compared by the authors with their FA-free value

Which pKa does the source give for “Human serum albumin (HSA) (Homo sapiens)” here?
The pKa was roughly 8.
